Test results as given in article PMC2148462.

What was measured:
[1] = biological target: MBS (myosin-binding subunit of myosin phosphatase), endogenous in MDCK cells (dog (endogenous in MDCK)); assay: co-IP
[2] = biological target: GST-moesin (1–323 aa) (human) (UniProt P26038); assay: pull-down
[3] = biological target: HA-full-length moesin (1–577 aa) (mouse) (UniProt P26041); assay: pull-down
Sequence of UniProt P26041 (P26041 whole entry, the tested form may be a part): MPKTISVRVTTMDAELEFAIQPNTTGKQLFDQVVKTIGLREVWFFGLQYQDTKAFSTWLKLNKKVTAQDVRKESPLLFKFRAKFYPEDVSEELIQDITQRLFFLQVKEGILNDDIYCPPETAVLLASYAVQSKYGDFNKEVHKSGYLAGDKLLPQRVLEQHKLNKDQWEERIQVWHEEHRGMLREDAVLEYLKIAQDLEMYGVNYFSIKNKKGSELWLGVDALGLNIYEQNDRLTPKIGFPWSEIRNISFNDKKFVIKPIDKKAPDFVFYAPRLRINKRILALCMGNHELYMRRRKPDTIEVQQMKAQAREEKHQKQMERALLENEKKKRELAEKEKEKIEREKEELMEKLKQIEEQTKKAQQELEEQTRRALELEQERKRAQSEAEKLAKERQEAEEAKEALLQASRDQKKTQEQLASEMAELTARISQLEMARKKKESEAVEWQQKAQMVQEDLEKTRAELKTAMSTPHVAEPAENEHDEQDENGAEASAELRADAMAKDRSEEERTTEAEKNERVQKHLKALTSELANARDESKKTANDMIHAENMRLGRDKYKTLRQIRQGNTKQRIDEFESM

Sequence of UniProt P26038 (P26038 1-323): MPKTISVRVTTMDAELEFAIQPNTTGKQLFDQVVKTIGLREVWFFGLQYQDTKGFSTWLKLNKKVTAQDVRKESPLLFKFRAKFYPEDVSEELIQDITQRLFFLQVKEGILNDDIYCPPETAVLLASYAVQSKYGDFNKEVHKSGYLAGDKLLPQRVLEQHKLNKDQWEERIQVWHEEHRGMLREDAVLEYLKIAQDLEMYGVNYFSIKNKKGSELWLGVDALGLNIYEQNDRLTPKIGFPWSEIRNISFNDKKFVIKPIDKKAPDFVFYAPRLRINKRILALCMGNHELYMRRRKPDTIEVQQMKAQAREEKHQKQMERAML

percent of total moesin recovered with immunoprecipitated MBS [1]	stoichiometry N (moesin per MBS) [1]	Kd [2]	stoichiometry N [2]	Kd [3]	Substance
0.5%	0.33	–	–	–	moesin, endogenous in MDCK cells (natural protein)
–	–	260 nM	0.4	1230 nM	recombinant full-length rat MBS (1–976 aa), myosin-binding subunit of myosin phosphatase (natural protein)
